T1: EsCas13d, nuclease-dead (Eubacterium siraeum, UniProt B0MS50, R295A;H300A;R849A;H854A)
T1 sequence: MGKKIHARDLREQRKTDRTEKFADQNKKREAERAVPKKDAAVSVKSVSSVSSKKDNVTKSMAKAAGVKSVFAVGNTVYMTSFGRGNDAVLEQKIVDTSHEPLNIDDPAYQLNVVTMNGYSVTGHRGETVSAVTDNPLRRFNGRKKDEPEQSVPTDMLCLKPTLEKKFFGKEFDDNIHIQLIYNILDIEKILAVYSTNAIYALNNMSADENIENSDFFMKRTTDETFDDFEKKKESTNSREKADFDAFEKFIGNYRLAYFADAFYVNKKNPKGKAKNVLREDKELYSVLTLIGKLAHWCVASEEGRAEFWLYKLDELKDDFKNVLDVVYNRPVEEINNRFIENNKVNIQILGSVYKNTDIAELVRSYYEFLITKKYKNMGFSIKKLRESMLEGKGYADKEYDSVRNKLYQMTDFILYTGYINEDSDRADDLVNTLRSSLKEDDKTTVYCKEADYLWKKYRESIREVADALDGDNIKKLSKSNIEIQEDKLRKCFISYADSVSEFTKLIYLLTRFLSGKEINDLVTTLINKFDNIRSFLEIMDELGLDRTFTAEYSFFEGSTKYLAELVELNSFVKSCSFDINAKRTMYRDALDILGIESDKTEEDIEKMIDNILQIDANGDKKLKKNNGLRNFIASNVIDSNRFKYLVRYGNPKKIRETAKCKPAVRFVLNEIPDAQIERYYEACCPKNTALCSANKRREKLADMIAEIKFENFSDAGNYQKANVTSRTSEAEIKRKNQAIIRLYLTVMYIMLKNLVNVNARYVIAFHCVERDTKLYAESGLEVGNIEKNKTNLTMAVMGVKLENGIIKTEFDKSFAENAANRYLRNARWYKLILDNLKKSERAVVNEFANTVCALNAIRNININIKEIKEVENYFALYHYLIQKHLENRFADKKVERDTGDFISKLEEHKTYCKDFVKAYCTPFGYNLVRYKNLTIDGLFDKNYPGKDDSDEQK


Molecular target: T1, EsCas13d, nuclease-dead
Experiment: crRNA (strand 1, pre-loaded); Mg2+; 40 mM Tris-HCl pH 7.5, 150 mM NaCl, 6 mM MgCl2, 1 mM DTT, 0.1% Tween-20, 0.2 mg/ml BSA; 25 C; 10 min per concentration, then washed
Conditions: tags: His6-TwinStrep-SUMO cleaved; N-terminal SNAP kept (SNAP-Surface 488); label: 3' end held by stalled T7 RNA polymerase

Row | Binder | Kd [nM]
1 | target 1 insC 3' of 9,insG 3' of 7 (mixed) RNA 1: CACCCGUGCAAAAAUGCAGGGGUCUAAAACUGAGCGGAUAACCUCUCUAUGG RNA 2: GGGAAUGGAUCCACAUCUACGAAUUCGUACCAUAGAGAGGUUACUCGCGCUCACCGAGAUCGGAAGAGCACACGU | 11.4 ± 0.7
2 | target 1 A16G,G17A (mixed) RNA 1: CACCCGUGCAAAAAUGCAGGGGUCUAAAACUGAGCGGAUAACCUCUCUAUGG RNA 2: GGGAAUGGAUCCACAUCUACGAAUUCGUACCAUAAGGAGGUUAUCCGCUCACCGAGAUCGGAAGAGCACACGU | 84 ± 30
3 | target 1 C7A,A16U (mixed) RNA 1: CACCCGUGCAAAAAUGCAGGGGUCUAAAACUGAGCGGAUAACCUCUCUAUGG RNA 2: GGGAAUGGAUCCACAUCUACGAAUUCGUACCAUAGUGAGGUUAUACGCUCACCGAGAUCGGAAGAGCACACGU | 42.2 ± 2.5
4 | target 1 C2U,G13A (mixed) RNA 1: CACCCGUGCAAAAAUGCAGGGGUCUAAAACUGAGCGGAUAACCUCUCUAUGG RNA 2: GGGAAUGGAUCCACAUCUACGAAUUCGUACCAUAGAGAAGUUAUCCGCUUACCGAGAUCGGAAGAGCACACGU | 5.7 ± 0.33
5 | target 1 insA 3' of 2,insU 3' of 2 (mixed) RNA 1: CACCCGUGCAAAAAUGCAGGGGUCUAAAACUGAGCGGAUAACCUCUCUAUGG RNA 2: GGGAAUGGAUCCACAUCUACGAAUUCGUACCAUAGAGAGGUUAUCCGCUCAUACCGAGAUCGGAAGAGCACACGU | 12 ± 0.7
6 | target 1 del13,del19 (mixed) RNA 1: CACCCGUGCAAAAAUGCAGGGGUCUAAAACUGAGCGGAUAACCUCUCUAUGG RNA 2: GGGAAUGGAUCCACAUCUACGAAUUCGUACCAAGAGAGUUAUCCGCUCACCGAGAUCGGAAGAGCACACGU | 80 ± 28
7 | target 1 insA 3' of 3,insU 3' of 2 (mixed) RNA 1: CACCCGUGCAAAAAUGCAGGGGUCUAAAACUGAGCGGAUAACCUCUCUAUGG RNA 2: GGGAAUGGAUCCACAUCUACGAAUUCGUACCAUAGAGAGGUUAUCCGCUACUACCGAGAUCGGAAGAGCACACGU | 9 ± 0.6
8 | target 1 U3C,A9U (mixed) RNA 1: CACCCGUGCAAAAAUGCAGGGGUCUAAAACUGAGCGGAUAACCUCUCUAUGG RNA 2: GGGAAUGGAUCCACAUCUACGAAUUCGUACCAUAGAGAGGUUUUCCGCCCACCGAGAUCGGAAGAGCACACGU | 44 ± 6
9 | target 1 G5A,C6G (mixed) RNA 1: CACCCGUGCAAAAAUGCAGGGGUCUAAAACUGAGCGGAUAACCUCUCUAUGG RNA 2: GGGAAUGGAUCCACAUCUACGAAUUCGUACCAUAGAGAGGUUAUCGACUCACCGAGAUCGGAAGAGCACACGU | 8 ± 0.4
10 | target 1 U11G,A20U (mixed) RNA 1: CACCCGUGCAAAAAUGCAGGGGUCUAAAACUGAGCGGAUAACCUCUCUAUGG RNA 2: GGGAAUGGAUCCACAUCUACGAAUUCGUACCUUAGAGAGGGUAUCCGCUCACCGAGAUCGGAAGAGCACACGU | 77 ± 24
11 | target 1 insG 3' of 14,insG 3' of 10 (mixed) RNA 1: CACCCGUGCAAAAAUGCAGGGGUCUAAAACUGAGCGGAUAACCUCUCUAUGG RNA 2: GGGAAUGGAUCCACAUCUACGAAUUCGUACCAUAGAGAGGGUUGAUCCGCUCACCGAGAUCGGAAGAGCACACGU | 16.7 ± 1
12 | target 1 U10G,G12U (mixed) RNA 1: CACCCGUGCAAAAAUGCAGGGGUCUAAAACUGAGCGGAUAACCUCUCUAUGG RNA 2: GGGAAUGGAUCCACAUCUACGAAUUCGUACCAUAGAGAGUUGAUCCGCUCACCGAGAUCGGAAGAGCACACGU | 20 ± 4
13 | target 1 G12C,A14G (mixed) RNA 1: CACCCGUGCAAAAAUGCAGGGGUCUAAAACUGAGCGGAUAACCUCUCUAUGG RNA 2: GGGAAUGGAUCCACAUCUACGAAUUCGUACCAUAGAGGGCUUAUCCGCUCACCGAGAUCGGAAGAGCACACGU | 27.5 ± 3.1
14 | target 1 G17A,A18G (mixed) RNA 1: CACCCGUGCAAAAAUGCAGGGGUCUAAAACUGAGCGGAUAACCUCUCUAUGG RNA 2: GGGAAUGGAUCCACAUCUACGAAUUCGUACCAUGAAGAGGUUAUCCGCUCACCGAGAUCGGAAGAGCACACGU | 81 ± 22
15 | target 1 insU 3' of 6,insU 3' of 1 (mixed) RNA 1: CACCCGUGCAAAAAUGCAGGGGUCUAAAACUGAGCGGAUAACCUCUCUAUGG RNA 2: GGGAAUGGAUCCACAUCUACGAAUUCGUACCAUAGAGAGGUUAUCCUGCUCAUCCGAGAUCGGAAGAGCACACGU | 14.1 ± 1.4
16 | target 1 C6A,G15U (mixed) RNA 1: CACCCGUGCAAAAAUGCAGGGGUCUAAAACUGAGCGGAUAACCUCUCUAUGG RNA 2: GGGAAUGGAUCCACAUCUACGAAUUCGUACCAUAGAUAGGUUAUCAGCUCACCGAGAUCGGAAGAGCACACGU | 27.5 ± 1.6
17 | target 1 insU 3' of 6,insC 3' of 1 (mixed) RNA 1: CACCCGUGCAAAAAUGCAGGGGUCUAAAACUGAGCGGAUAACCUCUCUAUGG RNA 2: GGGAAUGGAUCCACAUCUACGAAUUCGUACCAUAGAGAGGUUAUCCUGCUCACCCGAGAUCGGAAGAGCACACGU | 11.7 ± 0.8
18 | target 1 insG 3' of 20,insC 3' of 15 (mixed) RNA 1: CACCCGUGCAAAAAUGCAGGGGUCUAAAACUGAGCGGAUAACCUCUCUAUGG RNA 2: GGGAAUGGAUCCACAUCUACGAAUUCGUACCAGUAGAGCAGGUUAUCCGCUCACCGAGAUCGGAAGAGCACACGU | 89 ± 33
19 | target 1 insU 3' of 6,insA 3' of 2 (mixed) RNA 1: CACCCGUGCAAAAAUGCAGGGGUCUAAAACUGAGCGGAUAACCUCUCUAUGG RNA 2: GGGAAUGGAUCCACAUCUACGAAUUCGUACCAUAGAGAGGUUAUCCUGCUCAACCGAGAUCGGAAGAGCACACGU | 12.8 ± 0.8
20 | target 1 insA 3' of 17,insU 3' of 14 (mixed) RNA 1: CACCCGUGCAAAAAUGCAGGGGUCUAAAACUGAGCGGAUAACCUCUCUAUGG RNA 2: GGGAAUGGAUCCACAUCUACGAAUUCGUACCAUAGAAGAUGGUUAUCCGCUCACCGAGAUCGGAAGAGCACACGU | 62 ± 11
21 | target 1 C4A,U8G (mixed) RNA 1: CACCCGUGCAAAAAUGCAGGGGUCUAAAACUGAGCGGAUAACCUCUCUAUGG RNA 2: GGGAAUGGAUCCACAUCUACGAAUUCGUACCAUAGAGAGGUUAGCCGAUCACCGAGAUCGGAAGAGCACACGU | 10.3 ± 0.7
22 | target 1 A9G,G12A (mixed) RNA 1: CACCCGUGCAAAAAUGCAGGGGUCUAAAACUGAGCGGAUAACCUCUCUAUGG RNA 2: GGGAAUGGAUCCACAUCUACGAAUUCGUACCAUAGAGAGAUUGUCCGCUCACCGAGAUCGGAAGAGCACACGU | 6.8 ± 0.5
23 | target 1 insA 3' of 11,insG 3' of 11 (mixed) RNA 1: CACCCGUGCAAAAAUGCAGGGGUCUAAAACUGAGCGGAUAACCUCUCUAUGG RNA 2: GGGAAUGGAUCCACAUCUACGAAUUCGUACCAUAGAGAGGUAGUAUCCGCUCACCGAGAUCGGAAGAGCACACGU | 12.4 ± 0.4
24 | target 1 insA 3' of 7,insC 3' of 5 (mixed) RNA 1: CACCCGUGCAAAAAUGCAGGGGUCUAAAACUGAGCGGAUAACCUCUCUAUGG RNA 2: GGGAAUGGAUCCACAUCUACGAAUUCGUACCAUAGAGAGGUUAUCACGCCUCACCGAGAUCGGAAGAGCACACGU | 11.1 ± 0.5
25 | target 1 G12A,G15A (mixed) RNA 1: CACCCGUGCAAAAAUGCAGGGGUCUAAAACUGAGCGGAUAACCUCUCUAUGG RNA 2: GGGAAUGGAUCCACAUCUACGAAUUCGUACCAUAGAAAGAUUAUCCGCUCACCGAGAUCGGAAGAGCACACGU | 20 ± 2.3
26 | target 1 insC 3' of 20,insA 3' of 4 (mixed) RNA 1: CACCCGUGCAAAAAUGCAGGGGUCUAAAACUGAGCGGAUAACCUCUCUAUGG RNA 2: GGGAAUGGAUCCACAUCUACGAAUUCGUACCACUAGAGAGGUUAUCCGCAUCACCGAGAUCGGAAGAGCACACGU | 6.4 ± 0.4
27 | target 1 G5C,U19A (mixed) RNA 1: CACCCGUGCAAAAAUGCAGGGGUCUAAAACUGAGCGGAUAACCUCUCUAUGG RNA 2: GGGAAUGGAUCCACAUCUACGAAUUCGUACCAAAGAGAGGUUAUCCCCUCACCGAGAUCGGAAGAGCACACGU | 34.1 ± 3
28 | target 1 G5C,G13C (mixed) RNA 1: CACCCGUGCAAAAAUGCAGGGGUCUAAAACUGAGCGGAUAACCUCUCUAUGG RNA 2: GGGAAUGGAUCCACAUCUACGAAUUCGUACCAUAGAGACGUUAUCCCCUCACCGAGAUCGGAAGAGCACACGU | 41 ± 5
